Data as given in PMC12894433.

Test system: dCas9 (EnGen Spy dCas9, SNAP-tag) (Streptococcus pyogenes)
Experiment: single-molecule fluorescence co-localization
Settings: NEBuffer r3.1 adjusted to 1 mM MgCl2; single-molecule: 17 nM YOYO-1, 1 ng DNA, about 1 nM dCas9-RNA, 15 min at 37 C; EMSA: 1 mM DTT, 1% agarose 1x TAE gel

Substance	binding signal (% co-localization)
AAV2-ITR crRNA:tracrRNA-ATTO550 guide + pAAV-U6-sgRNA-CMV-GFP plasmid (positive)	51
AAV2-ITR crRNA:tracrRNA-ATTO550 guide + plasmid lacking the target site (negative)	23
